The results in this text go back to patent US20210324374, “COMPOSITIONS AND METHODS FOR SCREENING APTAMERS” (Chan Zuckerberg Biohub, Inc., published 2021).

The data set has as its target VEGF (vascular endothelial growth factor) (UniProt P15692-4 P15692-4:27-191). The data set is described as follows: N2A2 flow-cell fluorescence, natural DNA. Conditions: tags: Dylight 650 NHS labelled; R&D Systems; chain copies: 2. The text has this: We used N2A2 to measure the VEGF binding affinity of all sequences in these pools simultaneously. We performed three separate experiments: 1) VEGF binding to the natural DNA pools, 2) VEGF binding to non-natural DNA modified with tryptophan, and 3) VEGF binding to non-natural DNA modified with tyrosine. In addition to the six aptamer pools described above (R0-R5), we included three other DNA sequences on the flow cell for each experiment: (1) a known “fiducial mark” sequence with a fluorescently-labeled complement for intensity calibration, (2) a “positive control” sequence based on a published aptamer known to bind to VEGF, and (3) a “negative control” sequence known not to bind to VEGF. The same input DNA stocks and labeled VEGF protein were used for all three experiments, but new sequencing cartridges and flow cells were used for each separate experiment. Other details of experimental setup of the sequencing cartridge, protein titrations, and software and hardware modifications have previously been described in the provided grant document and manuscript. VEGF protein was labeled with Dylight647 fluorophore to enable imaging on the N2A2.

VEGF (vascular endothelial growth factor), sequence (P15692 other isoform, or with tags, fused parts or gaps): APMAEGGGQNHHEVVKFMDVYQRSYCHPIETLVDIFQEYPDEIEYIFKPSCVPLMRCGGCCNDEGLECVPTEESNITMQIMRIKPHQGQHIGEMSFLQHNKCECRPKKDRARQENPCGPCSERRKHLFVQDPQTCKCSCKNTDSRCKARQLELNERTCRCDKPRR

B1: K SL2-B positive control (ssDNA)
DNA: AGCAGCACAGAGGTCAGATGAATTGGGCCCGTCCGTATGGTGGGTCCTATGCGTGCTACCGTGAA
Consider B1, for which the binding result was “binds”.
